Laboratory results taken from patent publication US20040018515.

In the case of Mek1, the “initial rate of fluorescence increase (535 nm) of the ADP NASM FRET assay, reporting ADP yield from ATP hydrolysis” value (Erk2) is reported as “substantially enhanced fluorescence was observed (Table 17, shaded cells; 150-300 RFU/min)”.

Mek 6 was tested, and the “initial rate of fluorescence increase (535 nm) of the ADP NASM FRET assay, reporting ADP yield from ATP hydrolysis” value (p386) was “substantially enhanced fluorescence was observed (Table 17, shaded cells; 150-300 RFU/min)”.
